Laboratory results published in article PMC5630700 (2017).

B1: sdAb A–Gaussia luciferase fusion (glucibody, pecan35) (VHH)
VHH: EVKLQESGGGLVQAGESLRLSCAVPPEVFDIRTVAWYRQVPLGKGRELLSSITPWNKTTYEDSVKDRFTISRDNAKYTVYLQMNDLKPEDTAVYYCAQGWGIASMRYWGQGTQVTVSS
B2: sdAb B–Gaussia luciferase fusion (glucibody, pecan35) (VHH)
VHH: KVQLQESGGGLVQAGGSLRLSCAASGGTFSINTLGWYRRAPGKEREFVARISSGGITRYADSVKGRFTISRDNGKNTVYLDMNSLKPEDTAVYYCMYRNWGGGLDVYWGQGTQVTVSS
B3: sdAb C–Gaussia luciferase fusion (glucibody, pecan35) (VHH)
VHH: KVQLQESGGGLVQVGGSLRLSCKASGFTFRSSAMGWYRRAPGKQRELVASLTTTGTADYGDFVKGRFTISRDNAENTVDLHMNSLKPEDTAVYYCHEDPYGMESLRYWGQGTQVTVSS

What was measured:
[1] = molecular target: purified recombinant MARV (Marburg Musoke) nucleoprotein polymer (Marburg virus Musoke, UniProt P27588 1-695); test: ELISA
Chain of purified recombinant MARV (Marburg Musoke) nucleoprotein polymer (P27588 whole entry, the tested form may be a part): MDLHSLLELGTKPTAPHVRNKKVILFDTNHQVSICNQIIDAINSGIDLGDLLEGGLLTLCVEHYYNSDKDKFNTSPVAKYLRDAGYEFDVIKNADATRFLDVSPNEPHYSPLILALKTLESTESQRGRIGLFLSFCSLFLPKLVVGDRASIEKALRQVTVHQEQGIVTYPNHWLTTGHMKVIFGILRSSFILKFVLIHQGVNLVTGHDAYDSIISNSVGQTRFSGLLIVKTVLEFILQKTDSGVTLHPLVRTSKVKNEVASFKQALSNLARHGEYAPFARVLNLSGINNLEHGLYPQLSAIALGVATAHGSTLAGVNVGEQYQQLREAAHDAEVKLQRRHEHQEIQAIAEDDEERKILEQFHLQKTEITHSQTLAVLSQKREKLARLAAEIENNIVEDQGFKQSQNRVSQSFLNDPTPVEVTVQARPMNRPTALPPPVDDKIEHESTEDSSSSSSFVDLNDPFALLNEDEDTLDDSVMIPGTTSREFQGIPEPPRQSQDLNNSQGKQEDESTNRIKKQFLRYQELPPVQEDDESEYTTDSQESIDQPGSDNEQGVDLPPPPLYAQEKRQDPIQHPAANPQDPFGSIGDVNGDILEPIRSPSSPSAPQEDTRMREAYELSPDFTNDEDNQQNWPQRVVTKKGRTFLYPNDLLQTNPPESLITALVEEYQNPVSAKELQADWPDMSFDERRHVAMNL

mbp-NP600 fusion protein = mbp-NP600 fusion protein (Marburg virus Musoke, UniProt P27588 601-695); test: ELISA
Chain of mbp-NP600 fusion protein (P27588 601-695): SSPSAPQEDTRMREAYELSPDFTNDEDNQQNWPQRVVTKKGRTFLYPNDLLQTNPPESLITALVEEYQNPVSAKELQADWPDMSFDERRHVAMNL

Binder	EC50 [1]	EC50 (mbp-NP600 fusion protein)
B1	0.0028 µM	0.0141 µM
B2	0.0108 µM	0.162 µM
B3	0.0041 µM	0.0119 µM
